{"source": "a protein production outcome set (Wang et al. 2014)"}
{"assay": "label from the status in PepcDB records"}
{"sequence": "MSASLPRTSATALSSTSPLSARDAAPPKRPRFLRGGVAFSLSPNRDNGLVTFRLDTIGTGLVFADSLSNLTAALATQGGGGAAVVQAPPGTGKTTLVPPLLANLVSEQSPGRPRVVVTQPRRVAARSAARRLASLDGSQLGRRVGYTVRGESKVSQDTVVEFVTPGILLRRLLADPGLEDVSAVVLDEVHERGLETDLLVGMLAEVRELRGDITVVAMSATLDAARFATLLGTGLDGGDPAPVVDCPSALYPLKVQWVPAREHRLDARGVSRLFLDHVAHTAATTHAAALAPDADVDALVFLPGAREVSDVATRLRGLVSGNVEVLELHGQIGPEAQDRAVSGREPGGLPRIIVSTSLAESSLTVPGVRVVIDSGLSREPRRDAGRGMSGLVTVSCSRASADQRAGRAARQGPGTVVRCYDQQAYAAAPAHQTPEISVADLTSAALVLACWGAPGGVDLKLPDAPPAAAMNDAVEVLRELGAVTAEGTVTAVGKTLARIPADPRLARALLDGSAVAGRRAAAETVALVAGGQRAPGADLNKLLSALRSGSDPGARRFAEDVQRMETLVRKEAAAVVRPKAAADVTAGEATGLVVALAFPDRVARRVPGDGSTTYLLSSGTRAGLPSGSSLSGHDWLAVAEVSRAQGRDAAGTGAVIRSAATLSAELAEAAAPDLLTEKVEAKFDQGRVMARLERRLGAIVLSSTPVRPTAESGRRAVSEALEKTGLSMIGWSPAADALRRRLALLHRELGSPWPDVREAALLSRLEDWLGPELEAVATGAAVSSINLVDPLRRLLPWPDAARLEDLVPERLEVPSGSRVRIDYPEVSDRSSGDHDDGRPVVAVKLQECFGWDSTPRLLAGRVPVLFHLLSPAGRPLAVTDDLASFWSGPYSQVRAEMRGRYPRHPWPEDPWTAQATAKTKNRM", "protein production": "failed"}
{"sequence": "MSATVPSTASSRAPATTGFRSFLPLIGAVVIWGGNWPVMKMGLAHISPLWFAACRFGSAALISFLVLGALRRLRLPSRQEWPLVIGVGLLQMGAFTALALWALQYVPPGRASVIAYATAIWVIPLSSLVLGERPSRLQWLATAFSYAGIAVIVAPALGGWELHTVMGLTMLLGASLAWSVSIIQLRANRAIRLGADMIPWECAVATVPLIALAWLRDGAPDLGAMVDIWPVIAYTGPLATALTFIVVLNVTQSLPPAATSIAMLGVPVIGLVLSTVAWHEQISLDLSIGLALIGMGVVTTALAPRLGRLAAR", "protein production": "failed"}
{"sequence": "MSAVTYTFLGPQGTFTEAALMQVPGAADATRIPCTNVNTALERVRAGEADAAMVPIENSVEGGVTATLDAIATGQELRIIREALVPITFVLVARPGVELSDIKRISTHGHAWAQCRLWVDEHLPNADYVPGSSTAASAMGLLEDDAPYEAAICAPLIAAEQPGLNVLAEDIGDNPDAVTRFILVSRPGALPERTGADKTTVVVPLPEDHPGALMEILDQFASRGVNLSRIESRPTGQYLGHYFFSIDADGHATDSRVADALAGLHRISPATRFLGSYARADKQPAVVAPHTSDAAFASAHAWVDSILKGS", "protein production": "not failed"}
{"sequence": "MSCCIANAIRWDVSLLIHRSMSSSMSSVQPTSPVSDSPSLGEMHASVAVSRRGHWGFRLLAFLGPGYMVSVGYMDPGNWATGLAGGSRFGYMLLSVILLSNVMAIVLQALAARLGIASDMDLAQACRARYSRGTNLALWAVCELAIIACDLAEVIGTAIALNLLLGVPIILGAVITAVDVVLVLLLMHRGFRALEAFVIALLLVIFGCFVVQIVLAAPPLQEVLGGFVPRWQVVADPQALYLAIGIVGATVMPHNLYLHSSIVQTRAYPRTPVGRRSALRWAVADSTLALMLALFINASILILAAAVFHAQHHFDVEEIEQAYQLLAPVLGVGVAATLFATALLASGINSTVTATLAGQIVMEGFLRLRLRPWLRRVLTRGLAIVPVIVVVALYGEQGTGRLLLLSQVILSMQLPFAVIPLLRCVADRKVMGALVAPRWLMVVAWLIAGVIVVLNVKLLGDYAVHLMVGVSD", "protein production": "failed"}
{"sequence": "MSCTGFWRKLASGEECGAAARLLGAVLAIPAALYGLVVRLRALAYARGLSTVRHLDRPVISVGNLTVGGTGKTPMVAYLARRLMARGKRVAVISRGYGGSLEGETRIVSDGRTIVLSAAEAGDEPVHLATSVPGLMTVIGTDRYTAGLLALEQLDPDVFILDDGYQHLRLHRDLNILLMDCNRPLGNGRTLPAGLLREPQTAVRRADLVVYTRCTGGKAPAVHGMIPSCRAGHALTGAALLPDGEVQPLAALRGLRGVACAGIAEPEGFFDALRREGLDIVAAIPFADHASYGEREVSTLREAAAGADYLITTGKDGVKLSAHLARLLPVYATVLEMRPLDPAPLEAALDKVL", "protein production": "failed"}
{"sequence": "MSDAHVLKSRLEWGEPAFTILDVRDRSTYNDGHIMGAMAMPIEDLVDRASSSLEKSRDIYVYGAGDEQTSQAVNLLRSAGFEHVSELKGGLAAWKAIGGPTEGIIESRLEHHHHHH", "protein production": "failed"}
{"sequence": "MSDARAWDSPDDAHRLIAKALAELVAEDPTIPPHPYLSRHLAQHAARGRVLDDTHVPLAILPWESSRNVRILLRQTGATQQQDWLEAWAGIEPFVRDADPDSRLTSLHLAHHTATCRRLSLTARPVSERRLAGSRITPLWSDWTAPDNVLAVSDTLVESLAHTTTAPGRTLLISGDSHGTIRMWEANGTPAGAPLHTHGGAIQHLLPLQHDLLVSGGTDGAVRVWHSTRGQQLVEPVRRPHTWVSALALFEPADGARFLLVAHSDGHLTALDPVTFEPADTPLPALDPAPAILTPLATADGTALVIAQGRRVVVWRPGRGVVHISEHQGEVRAVVALPSGGRYAVCDDSGYLGFWDVSTGHETVAAGPAHDGPVIALTTLAVDGRQTVVSAGLDHTLRVWDADTGRPVGGALEGHTDPPVALTTLPGEGQELVVSAAADHTLRRWKLAGHGTRPRRPVRRPVTAAALPGPTVVPALLAAVADGAGTALWNVRTGRHVSLPAGEPPVTAFAWATVHGDPVLLTAHSDAAVRLWSLYAGNAVTPSLRGTLLNHSLPVQAMTAFPHAGATLLATGGADGSVRLWHLGDRLELAHWDDHALSVRDVTLLGTGEDALIVSAGSDGTVRLWDPGTRRASGGPVHCGQQVVHAVTTVAPHPDEAALIASGGEDGTVRLWDPTTRQPVGDPLDARDGAVTALASFHTPAGRPCLAAAGPSGTIHLWDVAARTHLLRIVTGNPLSTLAARQTGEPFTEHPVLLAAGTAGVCMFDVRLERLR", "protein production": "failed"}
{"sequence": "MSDAVEEAEARAVEPVGAKQRDAFISYSQSKNAPLAKQLQRGLERLAVSRFRPMRMSVFRDVTSLPANHDLWQSIQRELARSRYFILLASPEAAASPWVAREVDYWLRERDTEHLLIAVASGEIVWDDRAGDFDWRKTTSLPRNLAGHFTAAPLWVDLREIGERSHHSMRYPPFRAAVATLASPLHGRPKEELEHDDFRQLRFVKRLSWSGVALLVALLVLAVYGFFDASRQREAALSQARTSASQALAARSGQLLGTSPNQAAQYALYAEETRSTPESRRALAQAVTAAPYARRRLRADADSVTDMQGASRPAATDVVLSGDGTTAAYRSVFDDDRAVRLYDVPSARQSRVVRAEGTPRALSRDGRVLAMEVYLNRVQLWDTRSGRLLSTMATGHTENLPHVGHGLHALALSPDGRWVAASHYTPEGEAFAVVWRASDGREITRVPVSDARVGLGFSADGSRLTLVDQDRREVREFRTDSARWEAARSLPGMPGSTAEALRYSEVLLFDGARKALTRTSERAEVWDLEQRRRIAVRSLGPYEDMTVADDKGIFLLGGQDGTVRLYDAALRPGTTLGRLTRPASTIAMSADGTQVVVASYGGELNLFTTGVRRGQQVAFDEKDFTFGDLTPDGRMAVHRSEGRTEFWDPATGRRLGVIPYANLSVNLEDTAYTLSGDKRYVGMQSVEGFEDEGRFDVWDLRTGRRTDCGTAVGGSSFSPIRRPGLSFLPGDRYVVGEWNGAVELLDTRTCTRSTVTEDSGRFALSGDRRTLVLLNDDGVDTWRWDGDHAFARAARTTLPSEAHPVDMSVDHEGRQAAFSDRESHVYVVRLDSGERVRATGYLPDKTDAVAFSRDGRLLFQGFMTESTRGVRVLDAGSGDQLDIWTTDPPTGSVQPNEGMQVVPGPADDILTLGPDHKVVRRTVGVGAWHDLLCGLVSQPLPARERDRYLKDLDVEDPCR", "protein production": "failed"}
{"sequence": "MSDDNSHSSDTVNSKKGFFSLLLSQLFHGEPKNRDELLALIRDSGQNELIDEDTRDMLEGVMDIADQRVRDIMIPRSQMITLKRNQTLDECLDVIIESAHSRFPVISEDKDHIEGILMAKDLLPFMRSDAEAFSMDKVLRTAVVVPESKRVDRMLKEFRSQRYHMAIVIDEFGGVSGLVTIEDILELIVGEIEDEYDEEDDIDFRQLSRHTWTIRALASIEDFNDAFGTHFSDEEVDTIGGLVMQAFGHLPARGETIDIDGYQFKVAMADSRRIIQVHVRIPDDSPQPKLDE", "protein production": "not failed"}
{"sequence": "MSDEWIKIFESDFYVREMIKVWDEGEKWANWIDEVVSKYKLEKKVLDIPCGIGRVSYFLANRGYKVTGIDISERMISMARSNIQNGKFIVGDMRKIKEIIGNEKYDLVINIYNSLGYYSEEDDLKILESLRDSTRKIVVINLDNRDYIIYNRPNEYYTYIPPYLVYSKVEFEQETSRLKIYRKYYLNDKEVGEMIYEQRLYSIHEILALLKKAGLQPIEVLSGYSWKKFSIMDPEMTIIATPA", "protein production": "failed"}
{"sequence": "MSDFNLVGVIRVMPTDPDVNLDELEEKLKKVIPEKYGLAKVEREPIAFGLVALKFYVLGRDEEGYSFDEVAEKFEEVENVESAEVETVSRI", "protein production": "not failed"}
{"sequence": "MSDFVNGFWSYFIGIIAIGGIVWCVWLLYSQRRWLSTRPAGGVVEDTGHVWDGDLTELNNPVPRWWTWMYLLTCVFALGYLVLFPGVGSYQGTLGYTSVGEVKQKQAELAERVKPVYERFGGMTPEQLVADAPAREIGQRLFLNTCAQCHGSDAKGSTSFPNLTDGDWLYGGTPEIIAETIAKGRHGVMPPWKGVIDPRMAGDIAHYVRSLSGLAVDPVRVFRGKREFANYCVACHGVDAKGNQALGAPNLTDDVWLYGSSEASIVRTILDGRDNRMPAHEEVLTPEQIKLLSAWVWGLSNQAPAKAAEAAR", "protein production": "failed"}
{"sequence": "MSDGIPFAGEPADSHEAIMRATFRALREYGYAGLSIQRIADEADLSKSTFYHHFDGKEDLLLSFQEFILTEFNRIFQIESTGDPEQDIKTFVSLILDDFPDCVETPTKNAVLGSYVEMRAQAVQNPDFREKFTETDELFARQLVQIIEDGIEQGVFADVDPDTVSRFMITILDGVILQSATRNDNPVAEVRDTIDEYIEETLILNT", "protein production": "failed"}
{"sequence": "MSDHEVTGGVSLKERVAIVLVEPQSPGNVGMVCRAMKNMGLGELRIVKGCRLDHPEALKFAVSARDLLERARVFESLEDALSDTELSVATTRRHGKYRQEIFSPKEIVSKFAANLAGNRAALVFGREDNGLTTDELSLCRWHATIPSSEEYGSLNLAQAVMVFCYELFTSLGSRTVGGEDRPLAGSAETEPLFEHMERTLMRIGYLNPQNPAHLMRSLRRIFARSELDSREVAILRGMMTQIDWAADQFKGKKGA", "protein production": "failed"}
{"sequence": "MSDHFSIIKFDIGNSTMNAERKFLFACLIFALAIYAIHAFGLFDLLTDLPHLQTLIRQSGLFGYSLYILLFIIATLFLLPGSILVIAGGIVFGPFLGTLLSLIAATLASSCSFLLARWMGRDLLLKYVGHSHTFQAIEKGIARNGIDFLILTRLIPLFPYNIQNYAYGLTTIAFWPYTLISALTTLPGIVIYTVMASDLANEGITLRFILQLCLAGLALFILVQLAKLYARHKHVDLSASRRNPLTHPKNEG", "protein production": "failed"}
{"sequence": "MSDHKAVHSVQAKAEGKTLVMERSFEAPRELVFKAFSGSVHLESWWGPKGWQTANSRFEFQPDGVWLYCMECRDQNQGEFYGRKSCGKAVFQEIAAPEKIVYTDMFTDEEGNVVPGMPEILNEVYFQERDVGTKLITRSHFSSPKELQQLLDKGMVEGFSSQLERLEDYLKAIR", "protein production": "failed"}
{"sequence": "MSDIRMRADIAADGLTDRPPDRLADEPAEELSHGLLEGLSKEPADELADSPFLLDEPPDYFEDFLLFIFTLMKTTSCLGVAKTTHKLFLCVEPTKEKVAFSDKATSFSAPIEILLFNLDPPSIQGYLRRPLSLKDLHISSARIIDAPLLKPNG", "protein production": "failed"}
{"sequence": "MSDKFHILLLNGPNLNLLGTREPEKYGYTTLAEIVSQLEIQAQGMDVALSHLQSNAEHALIDSIHQARGNTDFILINPAAFTHTSVALRDALLGVQIPFIEIHLSNVHAREPFRHHSYLSDIAVGVICGLGADGYNFALQAAVNRLSKSN", "protein production": "not failed"}
